Measurements as given in the supplement of paper PMC11875167.

Assay: observed amide hydrogen exchange rate constant kobs (stretched exponential fit, FD-normalized) (s^-1); higher = faster H/D exchange (less protection)
Details: pH 3 (pH read); temperature: 20 °C; D2O: 88%
In short: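 Uptake curves were fitted to a stretched single exponential with β = 0.8, and kobs, the observed exchange rate constant, is the fitted rate. The data came from Jurkat tryptic peptides (LysC/trypsin, carbamidomethylated cysteines) labeled in 88% D2O at pHread 3, 20 °C, then quenched with 0.23% formic acid at 13 times from 18 to 93,600 s in processing triplicates. MS1 uptake from a Q-Exactive HF, analyzed in HDExaminer with no back-exchange correction, was normalized to full-deuteration controls (24 h, 37 °C).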

Row | Substance | observed amide hydrogen exchange rate constant kobs
1 | AAGVNVEPFWPGLFAK | 0.000814
2 | AAIDWFDGK | 0.00155
3 | AAPEASGTPSSDAVSR | 0.00186
4 | AAQEEYVK | 0.00112
5 | AAVPSGASTGIYEALELRDNDK | 0.00126
6 | ADLINNLGTIAK | 0.000815
7 | AEDNADTLALVFEAPNQEK | 0.00102
8 | AELNEFLTR | 0.00113
9 | AFAMIIDK | 0.000626
10 | AFLASPEYVNLPINGNGK | 0.000869
11 | AGAHLQGGAK | 0.00372
12 | AGFAGDDAPR | 0.00357
13 | AGGFLMK | 0.00127
14 | AGKPVICATQMLESMIK | 0.00088
15 | AGLQFPVGR | 0.00107
16 | AGNLGGGVVTIER | 0.000802
17 | AHSSMVGVNLPQK | 0.000759
18 | AIADTGANVVVTGGK | 0.00115
19 | AIIIFVPVPQLK | 0.000266
20 | AILVDLEPGTMDSVR | 0.0012
21 | AIPQLQGYLR | 0.00091
22 | AIVAIENPADVSVISSR | 0.00184
23 | ALAAFLK | 0.000792
24 | ALAENSGVK | 0.00135

Row | Substance | observed amide hydrogen exchange rate constant kobs
25 | ALELTGLK | 0.00115
26 | ALENDPDCR | 0.00109
27 | ALESPERPFLAILGGAK | 0.00092
28 | ALGQNPTNAEVLK | 0.000979
29 | ALLFIPR | 0.000533
30 | ALPFWNEEIVPQIK | 0.000814
31 | ALPGQLKPFETLLSQNQGGK | 0.0011
32 | ALTSELANAR | 0.00115
33 | ALTVPELTQQVFDAK | 0.000761
34 | ALWFQGR | 0.00126
35 | AMADPEVQQIMSDPAMR | 0.00104
36 | AMGIMNSFVNDIFER | 0.00109
37 | ANTFVAELK | 0.00102
38 | APEPHVEEDDDDELDSK | 0.0038
39 | APIIAVTR | 0.000401
40 | AQQELEEQTRR | 0.00236
41 | AQVARPGGDTIFGK | 0.00115
42 | ARFEELNADLFR | 0.00175
43 | ASILNTWISLK | 0.000492
44 | ATENDIANFFSPLNPIR | 0.000823
45 | ATFMVGSYGPRPEEYEFLTPVEEAPK | 0.00103
46 | ATISNDGATILK | 0.00117
47 | AVCMLSNTTAIAEAWAR | 0.000746
48 | AVDDGVNTFK | 0.00173

Row | Substance | observed amide hydrogen exchange rate constant kobs
49 | AVDSQILPK | 0.000865
50 | AVELAANTK | 0.00114
51 | AVFPSIVGRPR | 0.000833
52 | AVFVDLEPTVIDEVR | 0.000889
53 | AVLVDLEPGTMDSVR | 0.00126
54 | AVTEQGAELSNEER | 0.00216
55 | AVTEQGHELSNEER | 0.00324
56 | AYHEQLSVAEITNACFEPANQMVK | 0.00146
57 | CAADLGLNK | 0.00234
58 | CILQDGR | 0.00103
59 | CPNLTHLNLSGNK | 0.00139
60 | DAGPLLISLK | 0.000622
61 | DAGTIAGLNVLR | 0.000899
62 | DALSDLALHFLNK | 0.00125
63 | DDGLFSGDPNWFPK | 0.00189
64 | DEFEGLFK | 0.00163
65 | DEILPTTPISEQK | 0.000626
66 | DIFQEIFDK | 0.00131
67 | DLADELALVDVIEDK | 0.00109
68 | DLPLLLFR | 0.000629
69 | DLSHIGDAVVISCAK | 0.00192
70 | DLSLEEIQK | 0.00108
71 | DLSTIEPLK | 0.000669
72 | DLTDYLMK | 0.00113

Row | Substance | observed amide hydrogen exchange rate constant kobs
73 | DNLTLWTSDMQGDGEEQNK | 0.00177
74 | DNSTMGYMMAK | 0.00115
75 | DQIYDIFQK | 0.000729
76 | DQLIYNLLK | 0.000541
77 | DQQEAALVDMVNDGVEDLR | 0.00161
78 | DQVANSAFVER | 0.00108
79 | DRPFFAGLVK | 0.000655
80 | DRPFFPGLVK | 0.000625
81 | DRVTDALNATR | 0.000789
82 | DSPSVWAAVPGK | 0.000933
83 | DSTLIMQLLR | 0.000608
84 | DSYVGDEAQSK | 0.00207
85 | DTGIFLDLMHLK | 0.00141
86 | DVIEEYFK | 0.00131
87 | DVLFLK | 0.000617
88 | DVNAAIATIK | 0.000675
89 | DVNVNFEK | 0.00146
90 | DYFGAHTYELLAK | 0.00186
91 | DYFLFR | 0.00105
92 | DYNVTANSK | 0.00116
93 | EAEAAIYHLQLFEELRR | 0.00102
94 | EAFSLFDK | 0.0018
95 | EAILDIITSR | 0.0013
96 | EALQDVEDENQ | 0.0022

Row | Substance | observed amide hydrogen exchange rate constant kobs
97 | EAMEDGEIDGNK | 0.0032
98 | EANNFLWPFK | 0.000958
99 | EDAANNYAR | 0.0026
100 | EDLHDMLASLGK | 0.00199
101 | EDQTEYLEER | 0.00222
102 | EDSQRPGAHLTVK | 0.00212
103 | EDSVKPGAHLTVK | 0.00181
104 | EESGKPGAHVTVK | 0.00233
105 | EFEPLLNWMK | 0.000734
106 | EFHLNESGDPSSK | 0.00132
107 | EGGLGPLNIPLLADVTR | 0.000844
108 | EGIPALDNFLDKL | 0.00119
109 | EGIPPDQQR | 0.00171
110 | EGLELPEDEEEK | 0.00262
111 | EGMNIVEAMER | 0.00123
112 | EGVHGGLINKK | 0.0019
113 | EIAEAYLGK | 0.00148
114 | EIIDLVLDR | 0.00103
115 | EILVGDVGQTVDDPYATFVK | 0.00102
116 | EIQTAVR | 0.001
117 | EISLWFKPEELVDYK | 0.000892
118 | EITALAPSTMK | 0.000944
119 | EIVLADVIDNDSWR | 0.00114
